Assay results published in publication PMC12033910.

Target: holo-PhuS H209A (Pseudomonas aeruginosa PAO1, UniProt O68880 1-354, H209A)
Test: EMSA

B1: prrF1-50 (5'-biotin) (dsDNA)
DNA 1: AGCAGAAAAGTTTGGCGAAAGCGTTTGACATGGAAATGAGAATCATTATT
DNA 2: AATAATGATTCTCATTTCCATGTCAAACGCTTTCGCCAAACTTTTCTGCT
  binding result: binds
